Assay results published in patent US6942980.

T1: bacterially expressed glutathione-S-transferase (GST)-RAR-γ fusion protein (human) (UniProt P13631)
T1 sequence (looked up): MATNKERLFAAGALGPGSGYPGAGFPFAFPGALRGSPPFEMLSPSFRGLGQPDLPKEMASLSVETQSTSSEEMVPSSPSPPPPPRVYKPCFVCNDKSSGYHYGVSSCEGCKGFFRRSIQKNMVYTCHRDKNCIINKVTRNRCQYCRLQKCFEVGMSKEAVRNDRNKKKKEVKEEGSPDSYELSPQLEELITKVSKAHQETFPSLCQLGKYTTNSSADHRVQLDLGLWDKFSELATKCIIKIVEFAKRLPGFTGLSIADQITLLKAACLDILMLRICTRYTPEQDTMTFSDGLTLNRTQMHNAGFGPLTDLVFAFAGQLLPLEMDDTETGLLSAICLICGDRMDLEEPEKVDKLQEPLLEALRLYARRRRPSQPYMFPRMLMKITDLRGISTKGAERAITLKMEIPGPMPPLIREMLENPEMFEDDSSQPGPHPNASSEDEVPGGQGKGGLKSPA

B1: [35S]-radiolabeled in vitro translated N-CoR-C' (C-terminus of N-CoR, amino acids 1629-2453) (protein, UniProt Q60974 1629-2453, looked up)
chain: MQVNLRPDVTRGLSPREQPLGLPYPATRGIIDLTNMPPTILVPHAGGTSTPPMDRITYIPGTQVTFPPRPYNAASLSPGHPTHLAAAASAEREREREREKERERERERERERERERIAAAPADLYLRPGSEQPGRPGSHGYVRSPSPSVRTQETILQQRPSVFQGTNGTSVITPLDPTAQLRIMPLPSGGPSISQGLPASRYNTAADALAALVDAAASAPQMDVSKTKESKHEAARLEENLRSRSAAVSEQQQLEQKNLEVEKRSVQCVCTSSALPSGKAQPHASVVYSEAGKDKGPPPKSRYEEELRTRGKTTITAANFIDVIITRQIASDKDARERGSQSSDSSSSLSSHRYETASDAIEVISPASSPAPPQEKPQAYQPDMVKANQAENESTRQYEGPLHHYRSQQESPSPQQQPPLPPSSQSEGMGQVPRTHRLITLADHICQIITQDFARNQVPSQASTSTFQTSPSALSSTPVRTKTSSRYSPESQSQTVLHPRPGPRVSPENLVDKSRGSRPGKSPERSHIPSEPYEPISPPQGPAVHEKQDSMLLLSQRGVDPAEQRSDSRSPGSISYLPSFFTKLESTSPMVKSKKQEIFRKLNSSGGGDSDMAAAQPGTEIFNLPAVTTSGAVSSRSHSFADPASNLGLEDIIRKALMGSFDDKVEDHGVVMSHPVGIMPGSASTSVVTSSEARRDEGEPSPHAGVCKPKLINKSNSRKSKSPIPGQSYLGTERPSSVSSVHSEGDYHRQTPGWAWEDRPSSTGSTQFPYNPLTIRMLSSTPPTQIACAPSAITQAAPHQQNRIWEREPAPLLSAQYETLSDSDD
modifications: 35S-methionine radiolabel

Tests used:
[1] = molecular target: Gal-4 AD-RAR-γ fusion protein (Gal-4 activation domain joined to RAR-γ, from pACT-RAR-γ) (yeast; human) (UniProt P13631); experiment: cell-based or functional assay
[2] = molecular target: T1, bacterially expressed glutathione-S-transferase (GST)-RAR-γ fusion protein (human); experiment: GST pull-down: 35S-labeled N-CoR-C' on GST-RAR-γ beads, incubation 20 minutes at 20° C.; phosphoimager quantitation
[3] = molecular target: T1, bacterially expressed glutathione-S-transferase (GST)-RAR-γ fusion protein (human); experiment: GST pull-down: 35S-labeled N-CoR-C' on GST-RAR-γ beads, incubation 20 minutes at 37° C.; phosphoimager quantitation
[4] = molecular target: T1, bacterially expressed glutathione-S-transferase (GST)-RAR-γ fusion protein (human); experiment: GST pull-down: 35S-labeled N-CoR-C' on GST-RAR-γ beads, incubation 20 minutes at 30° C.; phosphoimager quantitation

Row | Molecule | Units of β-galactosidase activity, yeast two-hybrid in Y190; 1 µM AGN 193109, Triplicate 1 [1] | Units of β-galactosidase activity, yeast two-hybrid in Y190; 1 µM AGN 193109, Triplicate 2 [1] | Units of β-galactosidase activity, yeast two-hybrid in Y190; 1 µM AGN 193109, Triplicate 3 [1] | Units of β-galactosidase activity, yeast two-hybrid in Y190; 1 µM TTNPB, Triplicate 1 [1] | Units of β-galactosidase activity, yeast two-hybrid in Y190; 1 µM TTNPB, Triplicate 2 [1] | Units of β-galactosidase activity, yeast two-hybrid in Y190; 1 µM TTNPB, Triplicate 3 [1] | Units of β-galactosidase activity, yeast two-hybrid in Y190; Control (DMSO), Triplicate 1 [1] | Units of β-galactosidase activity, yeast two-hybrid in Y190; Control (DMSO), Triplicate 2 [1] | Units of β-galactosidase activity, yeast two-hybrid in Y190; Control (DMSO), Triplicate 3 [1] | β-Galactosidase Activity (units), yeast two-hybrid in Y190; 1 µM AGN 194310 [1] | β-Galactosidase Activity (units), yeast two-hybrid in Y190; Control (DMSO) [1] | fold decrease in N-CoR binding (1 µM TTNPB against vehicle alone, 20° C.) [2] | fold increase in N-CoR binding (1 µM AGN 193109 against vehicle alone, 20° C.) [2] | fold increase in interaction between RAR and N-CoR (1 µM AGN 193109 against vehicle alone, 37° C.) [3] | fold decrease in N-CoR interaction with RAR (1 µM TTNPB against vehicle alone, 30° C.) [4] | fold increase in N-CoR interaction with RAR (1 µM AGN 193109 against vehicle alone, 30° C.) [4]
1 | GAL-4 DBD-N-CoR fusion protein (GAL-4 DNA binding domain fused to the full length N-CoR polypeptide, from pAS-N-CoR) (from UniProt P04386 1-147; Q60974 1-2453) | 5.91 units | 4.43 units | 4.15 units | 2.26 units | 1.83 units | 1.96 units | 2.18 units | 2.12 units | 1.69 units | 5.1 units | 0.82 units |  |  |  |  | 
2 | B1 |  |  |  |  |  |  |  |  |  |  |  | 2.6 fold | 1.6 fold | 20.5 fold | 4.5 fold | 2.2 fold
